From patent publication US20190284258A1, “HAEMADIPSA SYLVESTRIS ANTITHROMBOTIC PEPTIDE SYLVESTIN AND USE THEREOF” (priority 2016, published 2019)

Biological target: kallikrein
Experiment: enzyme inhibition kinetics, chromogenic substrate, OD 405 nm

Binder: TSEPVCACPKMLFWVCGKDGETYTHPCIAKCHNVEVEHDGKCK (modifications not checked) [Haemadipsa sylvestris antithrombotic peptide Sylvestin]
- Ki: 17.8 nM
